In US20210238283A1 (Y BIOLOGICS, published 2021):
“And” between values parts separate entries of the source, which are not always exact repeats. Equal values may be shown once.

Columns and labels:
[1] = biological target: T1, human LAG-3 overexpressed on cells (human, UniProt P18627 23-525); experiment: flow cytometry, HEK293E cells overexpressing human LAG-3
T1 construct: whole, on cells; also called HEK293E-hLAG3; hLAG3 (Human)
T1 sequence (looked up): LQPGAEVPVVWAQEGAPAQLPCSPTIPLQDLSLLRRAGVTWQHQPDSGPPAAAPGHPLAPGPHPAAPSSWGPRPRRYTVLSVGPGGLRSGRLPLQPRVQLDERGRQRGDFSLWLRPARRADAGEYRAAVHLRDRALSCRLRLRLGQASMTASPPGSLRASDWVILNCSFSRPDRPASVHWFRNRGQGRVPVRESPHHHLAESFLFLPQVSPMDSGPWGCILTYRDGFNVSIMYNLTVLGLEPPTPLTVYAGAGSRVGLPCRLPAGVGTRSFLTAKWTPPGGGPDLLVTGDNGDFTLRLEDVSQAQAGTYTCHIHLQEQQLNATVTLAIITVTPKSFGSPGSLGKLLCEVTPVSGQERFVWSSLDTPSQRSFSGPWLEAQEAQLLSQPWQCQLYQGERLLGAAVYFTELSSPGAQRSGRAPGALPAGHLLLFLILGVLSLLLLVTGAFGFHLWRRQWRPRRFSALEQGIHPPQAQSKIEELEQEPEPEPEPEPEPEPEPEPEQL
Method: (§1) After that, the cells were washed three times with PBS containing 2% FBS and then subjected to the reaction for 30 minutes at 4° C. with anti-human IgG antibody (#FI-3000, Vectorlabs) linked with FITC fluorescent. The cells were washed by the same washing process as above followed by suspension in 0.2 ml PBS containing 2% FBS. The cells were then analyzed by FACSCanto II flow cytometer.

[2] = biological target: T2, recombinant monkey LAG-3 fused with mouse Fc (MrhLAG-3-mFc) (monkey); experiment: Octet biolayer interferometry, 1:1 global fit
T2 construct: also called monkey LAG-3 antigen
Method: (§2) After stabilization for 10 minutes in a buffer (#18-1042, Fortebio Inc.), immobilized antigen or antibody was washed out for 5 minutes with the buffer. The antibody or antigen desired for binding was prepared at different concentrations (0.94-60 nM) in a 96-well plate (#655209, Greiner Bio-One, USA) and subjected to the association reaction for 10 minutes followed by dissociation reaction for 10 minutes or 30 minutes.

[3] = biological target: T3, recombinant mouse LAG-3 fused with mouse Fc (mLAG-Fc) (mouse, UniProt Q61790 24-442, limits assumed); experiment: Octet biolayer interferometry, 1:1 global fit
T3 construct: also called mouse LAG-3 antigen; not shown: mouse Fc (mFc) at the carboxy terminal
T3 sequence (looked up): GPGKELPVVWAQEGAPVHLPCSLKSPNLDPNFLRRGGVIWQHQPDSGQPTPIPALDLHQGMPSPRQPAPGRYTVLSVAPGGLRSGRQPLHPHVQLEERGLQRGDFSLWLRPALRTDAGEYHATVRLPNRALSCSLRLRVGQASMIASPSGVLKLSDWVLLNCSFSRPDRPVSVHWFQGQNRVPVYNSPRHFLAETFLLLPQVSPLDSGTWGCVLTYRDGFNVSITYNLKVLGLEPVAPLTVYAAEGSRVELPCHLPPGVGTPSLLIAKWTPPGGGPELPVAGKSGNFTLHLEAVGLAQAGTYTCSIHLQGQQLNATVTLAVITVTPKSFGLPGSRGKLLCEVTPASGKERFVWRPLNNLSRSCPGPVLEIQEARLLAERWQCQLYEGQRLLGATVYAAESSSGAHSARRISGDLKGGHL
Method: as §2

[4] = biological target: T4, recombinant human LAG-3 extracellular domain fused with mouse Fc (hLAG-3-mFc) (human, UniProt P18627 29-450); experiment: Octet biolayer interferometry, 1:1 global fit
T4 construct: range 29-450; Made in HEK293F cells; also called human LAG-3 antigen; wild-type (WT) LAG-3; not shown: mouse Fc (mFc) at the carboxy terminal
T4 sequence (looked up): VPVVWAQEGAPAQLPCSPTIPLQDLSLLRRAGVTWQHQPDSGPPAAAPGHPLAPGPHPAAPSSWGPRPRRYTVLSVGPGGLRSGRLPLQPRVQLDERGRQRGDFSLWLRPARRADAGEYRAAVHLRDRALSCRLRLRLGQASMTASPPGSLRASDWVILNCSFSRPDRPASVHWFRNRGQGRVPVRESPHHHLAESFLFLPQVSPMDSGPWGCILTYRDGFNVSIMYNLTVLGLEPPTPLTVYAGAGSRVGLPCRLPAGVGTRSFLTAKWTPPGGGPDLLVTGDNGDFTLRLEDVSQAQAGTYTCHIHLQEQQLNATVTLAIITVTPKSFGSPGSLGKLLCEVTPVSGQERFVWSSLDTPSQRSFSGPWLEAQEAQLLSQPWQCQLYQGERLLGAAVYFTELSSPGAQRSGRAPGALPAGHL
Method: as §2

[5] = biological target: T5, mouse LAG-3 overexpressed on HEK293E cells (mouse, UniProt Q61790 24-521); experiment: flow cytometry, HEK293E cells overexpressing mouse LAG-3
T5 construct: whole, on cells; also called HEK293E-mLAG3; mLAG3 (Mouse)
T5 sequence (looked up): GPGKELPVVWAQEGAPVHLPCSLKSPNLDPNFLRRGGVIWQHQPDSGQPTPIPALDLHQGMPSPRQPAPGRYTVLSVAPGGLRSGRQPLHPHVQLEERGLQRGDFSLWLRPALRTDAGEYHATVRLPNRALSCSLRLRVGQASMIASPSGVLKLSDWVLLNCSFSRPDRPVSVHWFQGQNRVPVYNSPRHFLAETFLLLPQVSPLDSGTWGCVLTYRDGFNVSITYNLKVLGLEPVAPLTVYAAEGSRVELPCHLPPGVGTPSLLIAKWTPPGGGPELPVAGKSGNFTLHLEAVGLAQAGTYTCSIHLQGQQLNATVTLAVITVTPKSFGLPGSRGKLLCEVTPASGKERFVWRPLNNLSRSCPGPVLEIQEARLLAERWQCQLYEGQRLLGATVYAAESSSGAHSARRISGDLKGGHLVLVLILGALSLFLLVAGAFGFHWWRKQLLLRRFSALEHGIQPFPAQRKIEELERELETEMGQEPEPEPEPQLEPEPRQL
Method: as §1

[6] = biological target: T1, human LAG-3 overexpressed on cells; experiment: cell-based or functional assay
[7] = biological target: T2, recombinant monkey LAG-3 fused with …; experiment: BLI (Octet QKe), 1:1 global fit
Method: as §2

[8] = biological target: T3, recombinant mouse LAG-3 fused with …; experiment: BLI (Octet QKe), 1:1 global fit
Method: as §2

[9] = biological target: T4, recombinant human LAG-3 extracellular …; experiment: BLI (Octet QKe), 1:1 global fit
Method: as §2

- EC50 [1]: 0.0757 µg/mL
- koff [2]: 6.08e-05 s⁻¹
- kon [2]: 185000 M⁻¹ s⁻¹
- koff [3]: 0.000256 s⁻¹
- kon [3]: 430000 M⁻¹ s⁻¹
- koff [4]: 7.23e-05 s⁻¹
- kon [4]: 788000 M⁻¹ s⁻¹
- EC50 [5]: 1.5 µg/mL
- EC50 (µg/ml), LAG3/MHC class II Blockade bioassay [6]: 0.0688 µg/mL and 0.186 µg/mL
- Kd [7]: 0.328 nM
- Kd [8]: 0.596 nM
- Kd [9]: 0.0918 nM
B1: human anti-LAG-3 monoclonal antibody 1E09 (antibody, V domains shown)
VH: QVQLVQSGGDLVKPGGSLRLSCAASGFSFSDHYMNWIRQAPGKGLEWVAYIDTSATYIYYADSVKGRFTISRDNAKNSLYLQMNSLRAEDTAVYYCARDNWGSLDYWGQGALVTVSS
VL: DIQMTQSPSSLSPSVGDRVTITCQASQEISIYLNWYQQKPGKAPKLLIYDASNLETGVPSRFSGSGSGTDFTLTISSLQPEDFATYYCQQTYITPYTFGQGTKLDIK
notes: Tested as full IgG converted from scFv; also called LAG-3-1E09; Parent (1E09)
